Measurements from patent publication US20220127355A1 (INTEGRAL MOLECULAR, published 2022).
Changes are numbered by the printed parent chain.

Legend:
Claudin 6 (human) [1] = biological target: T1, Claudin 6 (human) (human, UniProt P56747 1-220); assay: flow cytometry, HEK-293T cells transiently transfected with human Claudin 6 (hsCLDN6); pUC = empty vector control
T1 construct: Expressed on transfected HEK-293T cells or naturally on PA-1 cells for flow cytometry; For the Octet KD values it was the intact protein embedded in virus-like particles (lipoparticles); also called hsCLDN6; CLDN6
T1 chain: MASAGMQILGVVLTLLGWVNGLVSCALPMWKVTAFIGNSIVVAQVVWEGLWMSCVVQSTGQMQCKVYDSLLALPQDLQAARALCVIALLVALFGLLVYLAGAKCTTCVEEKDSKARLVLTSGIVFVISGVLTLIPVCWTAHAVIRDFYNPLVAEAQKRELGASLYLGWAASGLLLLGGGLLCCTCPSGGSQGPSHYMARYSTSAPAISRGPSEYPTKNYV
Protocol: FIG. 1 illustrates the results of a binding assay showing that Claudin 6 MAbs bind to human Claudin 6. Human embryonic kidney 293T (HEK-293T) cells were transiently transfected with DNA for human Claudin 6 (hsCLDN6) or empty vector along with GFP (pUC) for 22 hours. Claudin 6 MAbs (IM136, IM171, IM172, and IM173) were added at serial dilutions (0.0-10 μg/mL) and incubated for 90 min with shaking. After a wash step, secondary antibody for detection (allophycocyanin-conjugated mouse anti-human IgG Fc; Southern Biotech) was added and incubated for 30-45 min. Cells were washed, and fluorescence was detected by high-throughput Intellicyt flow cytometry, with gating by graphing forward scatter against side scatter. Data were analyzed in GraphPad Prism software based on the geometric mean of fluorescence intensity for the cell population in each well.

Claudin 6 (human) [2] = biological target: T1, Claudin 6 (human); assay: biosensor (Forte Octet), intact claudin in virus-like particles (lipoparticles)
Protocol: Affinity of various antibodies against CLDN6 as compared to CLDN9, CLDN3, and CLDN4 was measured using a biosensor. Biosensor affinity measurement of the various antibodies against the proteins was determined using a Forte Octet, which was used for biosensor measurements, using intact claudin proteins embedded in virus-like particles (lipoparticles). The KD for different antibodies is shown below.

T33A = biological target: T2, T33A; assay: Shotgun Mutagenesis epitope mapping; mean (range), % of wild-type Claudin 6
T2 construct: Shotgun Mutagenesis mutant; also called Claudin 6 T33A
T2 chain: T1 chain with T33A

N38A = biological target: T3, N38A; assay: as above
T3 construct: Shotgun Mutagenesis mutant; also called Claudin 6 N38A
T3 chain: T1 chain with N38A

V152A = biological target: T4, V152A; assay: as above
T4 construct: Shotgun Mutagenesis mutant; also called Claudin 6 V152A
T4 chain: T1 chain with V152A

Q156A = biological target: T5, Q156A; assay: as above
T5 construct: Shotgun Mutagenesis mutant; also called Claudin 6 Q156A
T5 chain: T1 chain with Q156A

Y67A = biological target: T6, Y67A; assay: as above
T6 construct: Shotgun Mutagenesis mutant; also called Claudin 6 Y67A
T6 chain: T1 chain with Y67A

D146A = biological target: T7, D146A; assay: as above
T7 construct: Shotgun Mutagenesis mutant; also called Claudin 6 D146A
T7 chain: T1 chain with D146A

D76A = biological target: T8, D76A; assay: as above
T8 construct: Shotgun Mutagenesis mutant; also called Claudin 6 D76A
T8 chain: T1 chain with D76A

B1: IM171 (antibody, V domains shown)
VH: AVTLDESGGGLQTPGGALSLVCKASGFDFSSYAMNWVRQAPGKGLEWVAGIGSTGSSTGYGPAVKGRATISRDNGQSTLRLQLNNLRAEDTAIYYCAKSVGNGNSWSGYIATSIDAWGHGTEVIVSS
VL: ALTQPSSVSANLGGTVKLTCSGGSSGYGWYQQKSPGSAPVTVIYSNDKRPSDIPSRFSGSLSGSTGTLTITGVQADDEAVYFCGSTDNSYVGIFGAGTTLTVL
notes: Detected with anti-human IgG Fc secondary; also called LM171
EC50 (read off the curve) (Claudin 6 (human) [1]): ~0.4 µg/mL | Kd (Claudin 6 (human) [2]): 3 nM | Binding Reactivity (% WT) (T33A): 22.8 % WT | Binding Reactivity (% WT) (N38A): 22.4 % WT | Binding Reactivity (% WT) (V152A): 129 % WT | Binding Reactivity (% WT) (Q156A): 102 % WT | Binding Reactivity (% WT) (Y67A): 97.2 % WT | Binding Reactivity (% WT) (D146A): 57.6 % WT | Binding Reactivity (% WT) (D76A): 6 % WT

B2: IM173 (antibody, V domains shown)
VH: AVTLDESGGGLQTPGGALSLVCKASGFTFSSYSMFWVRRAPGKGLEWVAGIDSGSTTFYGSAVKGRATISRDNGQSTVRLQLNNLRAEDTATYYCAKDAYGYCGWSGCSADSIDAWGHGTEVIVSS
VL: ALTQPSSVSANPGGTVEITCSGGNNYYGWYQQKSPGSAPVTVIYYNDKRPSDIPSRFSGSKSGSTGTLTITGVQADDEAVYFCGGWDSSGGIFGAGTTLTVL
notes: Detected with anti-human IgG Fc secondary
EC50 (read off the curve) (Claudin 6 (human) [1]): ~0.4 µg/mL | Kd (Claudin 6 (human) [2]): 0.32 nM | Binding Reactivity (% WT) (T33A): 116 % WT | Binding Reactivity (% WT) (N38A): 86 % WT | Binding Reactivity (% WT) (V152A): 58.2 % WT | Binding Reactivity (% WT) (Q156A): 0.9 % WT | Binding Reactivity (% WT) (Y67A): 28.8 % WT | Binding Reactivity (% WT) (D146A): 119 % WT | Binding Reactivity (% WT) (D76A): 76.8 % WT
